Target: T1, hGPR81 (SSTR1) (Homo sapiens, UniProt P30872)
T1 construct: in vitro transcribed RNA injected into Xenopus laevis oocytes
Test: Ca^2+ efflux in oocytes injected with hGPR81 RNA
Assay type: cell-based
Conditions: laevis oocytes injected with in vitro transcribed RNA
Procedure: Since the presence of a short cytoplasmic loop connecting transmembrane segments M5-M6 is a feature of G protein-coupled receptors that bind peptide hormones and neuropeptides (E. M. Ross, 1990), peptides known to regulate hormone secretion from pancreatic islets were tested as ligands for hGPR81. Initial attempts to identify the ligand for hGPR81 by injecting RNA transcribed in vitro into fenopus laevis oocytes (Kayano et al., 1990) and assessing changes in basal or stimulated cAMP levels in response to […] [calcitonin-gene-related peptide, gastric inhibitory polypeptide, glucagon, glucagon-like peptide 1-(7-36 amide), and vasoactive intestinal peptide], or Ca^2+ efflux (Williams et al., 1988) (angiotensin II, bombesin, cholecystokinin, and vasopressin) were unsuccessful. The binding of radiolabeled peptides (galanin, glucagon and somatostatin) to COS-7 cells transiently expressing hGPR81 was attempted, as well.

T1 sequence (P30872 whole entry): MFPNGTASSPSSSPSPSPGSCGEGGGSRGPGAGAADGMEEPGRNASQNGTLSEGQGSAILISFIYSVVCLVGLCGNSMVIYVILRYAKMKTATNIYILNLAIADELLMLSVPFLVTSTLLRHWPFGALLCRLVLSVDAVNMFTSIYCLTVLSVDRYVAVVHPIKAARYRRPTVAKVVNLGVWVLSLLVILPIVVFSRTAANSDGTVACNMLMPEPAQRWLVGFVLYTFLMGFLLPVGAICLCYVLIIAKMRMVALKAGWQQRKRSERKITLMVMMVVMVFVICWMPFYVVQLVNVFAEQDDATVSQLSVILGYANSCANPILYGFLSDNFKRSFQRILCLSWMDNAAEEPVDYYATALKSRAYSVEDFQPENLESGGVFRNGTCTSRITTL

B1: cholecystokinin: peptide known to regulate hormone secretion from pancreatic islets (peptide, UniProt P06307 21-115, looked up)
Cholecystokinin: QPVPPADPAGSGLQRAEEAPRRQLRVSQRTDGESRAHLGALLARYIQQARKAPSGRMSIVKNLQNLDPSHRISDRDYMGWMDFGRRSAEEYEYPS
modifications: Cholecystokinin
notes: peptide known to regulate hormone secretion from pancreatic islets
identification as ligand for hGPR81 by Ca^2+ efflux: unsuccessful
